Reference: publication PMC10517255, “Cysteine Enrichment Mediates Co-Option of Uricase in Reptilian Skin and Transition to Uricotelism” (Molecular Biology and Evolution, 2023)

Legend:
[1] = target: Gallus gallus Uox (cysteine-rich urate oxidase) (Gallus gallus); assay: SEC; purified GgUox, single peak (supplementary fig. S4B)
[2] = target: Gallus gallus Uox (cysteine-rich urate oxidase) (Gallus gallus); assay: atomic force microscopy; particle volume of the enzyme on mica, native or pre-incubated with βME, 100 nM protein in 4 mM HEPES pH 7.4, 10 mM NaCl, 2 mM MgCl2, imaged in air, tapping mode
[3] = target: Gallus gallus Uox (cysteine-rich urate oxidase) (Gallus gallus); assay: crystal structure; GgUox with uncleaved N-terminal His tag in complex with the inhibitor 8-azaxanthine; space groups C222_(1) and P2_(1)2_(1)2_(1); reduced, and oxidised by a 100 mM H2O2 soak for 15 min
[4] = target: T1, GgUox (Gallus gallus, UniProt A0A8V0ZED1, Y230H); assay: uricase activity, specific activity; type: biochemical; conditions: activity relative to wild type
T1 construct: gene LOC101747367; uricase-like CDS in pET28 (NheI/XhoI), N-terminal His-tag with thrombin site (uncleaved for crystals)
T1 sequence (A0A8V0ZED1 1-320 Y230H): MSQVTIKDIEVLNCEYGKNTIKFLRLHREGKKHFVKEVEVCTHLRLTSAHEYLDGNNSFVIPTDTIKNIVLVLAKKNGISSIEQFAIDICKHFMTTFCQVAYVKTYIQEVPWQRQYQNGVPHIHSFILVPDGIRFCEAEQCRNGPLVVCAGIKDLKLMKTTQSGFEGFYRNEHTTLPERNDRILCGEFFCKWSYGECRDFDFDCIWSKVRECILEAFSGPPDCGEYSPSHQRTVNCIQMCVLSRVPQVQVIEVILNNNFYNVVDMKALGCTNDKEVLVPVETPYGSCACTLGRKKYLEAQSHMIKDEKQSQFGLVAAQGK

[5] = target: T2, DrUox (Danio rerio, UniProt Q6DG85); assay: stopped flow, single turnover, diode array; type: biochemical; conditions: 35 μM enzyme, 25 μM urate, 100 mM potassium phosphate pH 7.6, 25°C
T2 construct: gene uox; enzyme described in Marchetti et al. 2016; tetrameric, about 150 kDa
T2 sequence (Q6DG85 1-298): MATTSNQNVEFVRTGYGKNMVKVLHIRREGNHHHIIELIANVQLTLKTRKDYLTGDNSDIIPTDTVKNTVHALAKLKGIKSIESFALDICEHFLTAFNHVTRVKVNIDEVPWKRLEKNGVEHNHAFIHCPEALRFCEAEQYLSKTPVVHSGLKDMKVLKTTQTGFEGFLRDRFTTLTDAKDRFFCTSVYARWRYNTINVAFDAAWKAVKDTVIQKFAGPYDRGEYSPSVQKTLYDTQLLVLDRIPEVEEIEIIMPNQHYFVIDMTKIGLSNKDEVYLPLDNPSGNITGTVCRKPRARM

[6] = target: T3, GgUox (Gallus gallus, UniProt A0A8V0ZED1); assay: X-ray crystallography, […]-2.[…] Å, reduced and H2O2-oxidized crystals; type: binding; conditions: active site at dimer interface; uncleaved His-tag; space groups P2_12_12_1 and C222_1
T3 construct: gene LOC101747367; uricase-like CDS in pET28 (NheI/XhoI), N-terminal His-tag with thrombin site (uncleaved for crystals)
T3 sequence (A0A8V0ZED1 1-320): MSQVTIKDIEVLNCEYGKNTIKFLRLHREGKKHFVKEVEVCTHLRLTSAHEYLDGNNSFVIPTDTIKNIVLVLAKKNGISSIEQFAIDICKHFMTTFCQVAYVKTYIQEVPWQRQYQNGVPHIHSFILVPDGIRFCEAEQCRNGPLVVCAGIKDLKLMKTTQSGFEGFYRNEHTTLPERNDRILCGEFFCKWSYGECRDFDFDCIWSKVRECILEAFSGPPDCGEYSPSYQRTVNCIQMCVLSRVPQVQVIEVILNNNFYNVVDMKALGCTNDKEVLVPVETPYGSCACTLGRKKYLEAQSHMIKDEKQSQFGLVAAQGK

[7] = substrate: O=c1[nH]c(=O)c2[nH]c(=O)[nH]c2[nH]1; assay: purified protein; type: biochemical, Gallus gallus; conditions: 100 mM potassium phosphate pH 7.6, 25°C, 4.1 µM GgUox, 1 µM HIUase, 2-140 μM urate
[8] = target: the molecule itself; assay: atomic force microscopy; particle volume of the enzyme on mica, native or pre-incubated with βME, 100 nM protein in 4 mM HEPES pH 7.4, 10 mM NaCl, 2 mM MgCl2, imaged in air, tapping mode

Work on “Gallus gallus Uox (cysteine-rich urate oxidase) (enzyme)” yielded a stoichiometry N [1] of 4, a stoichiometry N [2] of 4 and a stoichiometry N [3] of 4.

`O=c1[nH]c(=O)c2[nH]c(=O)[nH]c2[nH]1` [uric acid] was tested, and the “uricase activity, specific activity” value [4] was “we mutated the tyrosine in the active site of GgUox to either histidine (Y230H)” and the “stopped flow, single turnover, diode array” value [5] was “the same experiment was carried out with DrUox for comparison”.

For `O=c1[nH]c(=O)c2nn[nH]c2[nH]1` [8-azaxanthine], the “X-ray crystallography, 1.7-2.1 Å, reduced and H2O2-oxidized crystals” value [6] was “We crystallized GgUox in complex with its AZA inhibitor in two space groups”.

B1: GgUox (Gallus gallus) (protein)
chain: MSQVTIKDIEVLNCEYGKNTIKFLRLHREGKKHFVKEVEVCTHLRLTSAHEYLDGNNSFVIPTDTIKNIVLVLAKKNGISSIEQFAIDICKHFMTTFCQVAYVKTYIQEVPWQRQYQNGVPHIHSFILVPDGIRFCEAEQCRNGPLVVCAGIKDLKLMKTTQSGFEGFYRNEHTTLPERNDRILCGEFFCKWSYGECRDFDFDCIWSKVRECILEAFSGPPDCGEYSPSYQRTVNCIQMCVLSRVPQVQVIEVILNNNFYNVVDMKALGCTNDKEVLVPVETPYGSCACTLGRKKYLEAQSHMIKDEKQSQFGLVAAQGK
notes: uricase-like CDS in pET28 (NheI/XhoI), N-terminal His-tag with thrombin site (uncleaved for crystals)
In the case of B1, the Km [7] is reported as 12.5 µM and the kcat [7] is reported as 0.03 s⁻¹.

B2: Danio rerio Uox (enzyme, UniProt Q6DG85 1-298, looked up)
chain: MATTSNQNVEFVRTGYGKNMVKVLHIRREGNHHHIIELIANVQLTLKTRKDYLTGDNSDIIPTDTVKNTVHALAKLKGIKSIESFALDICEHFLTAFNHVTRVKVNIDEVPWKRLEKNGVEHNHAFIHCPEALRFCEAEQYLSKTPVVHSGLKDMKVLKTTQTGFEGFLRDRFTTLTDAKDRFFCTSVYARWRYNTINVAFDAAWKAVKDTVIQKFAGPYDRGEYSPSVQKTLYDTQLLVLDRIPEVEEIEIIMPNQHYFVIDMTKIGLSNKDEVYLPLDNPSGNITGTVCRKPRARM
notes: Danio rerio urate oxidase (DrUox), as in Marchetti et al. 2016; also called DrUox; uricase
For B2, the “stoichiometry N” value [8] was 4.
